Test results published in US20110165624A1.

Target: native Ocr protein (bacteriophage T7 gene 0.3 product) as produced from pMCSG7 (bacteriophage T7)
Test: size exclusion chromatography, Superdex 75; predicted monomer 16.6 kDa, dimer 33.3 kDa

## native Ocr protein (bacteriophage T7 gene 0.3 product) as produced from pMCSG7
  calculated molecular weight on size exclusion column: 35 kDa
